From patent publication US20240343820A1 (KITE PHARMA, published 2024)
Residue numbers refer to the chain shown, from its start.

T1: SLC20A1 (PIT1) receptor (UniProt Q8WUM9 1-679, limits assumed)
T1 construct: whole, on cells; Endogenous on K562 cells (a human cell line)
T1 sequence (looked up): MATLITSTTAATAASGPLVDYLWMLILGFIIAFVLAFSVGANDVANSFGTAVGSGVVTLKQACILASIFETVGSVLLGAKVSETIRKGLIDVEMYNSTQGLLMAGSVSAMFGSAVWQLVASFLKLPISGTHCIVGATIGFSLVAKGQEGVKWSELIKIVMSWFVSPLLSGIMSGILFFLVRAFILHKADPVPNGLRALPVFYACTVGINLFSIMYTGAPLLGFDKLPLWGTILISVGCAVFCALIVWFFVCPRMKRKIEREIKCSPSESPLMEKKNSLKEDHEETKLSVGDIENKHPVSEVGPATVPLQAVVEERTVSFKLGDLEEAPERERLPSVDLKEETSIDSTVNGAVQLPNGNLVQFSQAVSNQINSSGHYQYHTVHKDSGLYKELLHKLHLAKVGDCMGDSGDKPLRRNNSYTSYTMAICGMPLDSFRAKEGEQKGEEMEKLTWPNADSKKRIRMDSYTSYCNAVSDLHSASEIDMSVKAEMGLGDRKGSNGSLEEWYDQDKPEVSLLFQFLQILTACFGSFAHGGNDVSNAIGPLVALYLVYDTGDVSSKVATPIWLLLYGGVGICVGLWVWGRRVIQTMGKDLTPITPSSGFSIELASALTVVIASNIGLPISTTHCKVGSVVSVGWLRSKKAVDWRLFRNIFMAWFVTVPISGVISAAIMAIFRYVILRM

B1: 40A6 (antibody, V domains shown)
VH: EVQLVESGGGLVKPGGSLKLSCAASGFTFSSYVLSWVRQIPEKRLEWVATINSGGSYTYYPDSVKGRFTISRDNAKNTLYLQMSSLRSEDTAIYYCARHLIYYDYDGYYFDTWGQGTSLTVSS
VL: DVVMTQTPLSLPVSLGDQASISCRSSQTLVHSNGNIYLHWYLQKPGQSPKLLIYKVSNRFSGVPDRFSGSGSGTDFTLKISRVETEDLGIYFCSQTTHVPPTFGGGTKLEIK
notes: Anti-GALV gp70; One id for the hybridoma supernatant and the recombinant murine IgG2a antibody; also called 40A6-HC / 40A6-LC
B2: 35C11 (antibody, V domains shown)
VH: QVQLQQSGPELVRPGVSVKISCKVSGYTFTDYTMHWVKQSHAKSLEWIGLISTYSGKTNYNQKLKDKATMTVDKSSSTAYMELARLTSEDSAIFYCARGGLRDAMDYWGQGTSVTVSS
VL: DIVLTQSPASLAVSLGQGATISCRASESVDSYGNSFMHWYQQKPGQPPKLLIYRASNLESGIPARFSGSGSGTDFTLTINPVEADDVATYYCLQSNEDPRTFGGGTKLEIK
notes: also called 35C11-HC / 35C11-LC
B3: 40A3 (antibody, V domains shown)
VH: DVQLQESGPDLVKPSQSLSLTCTVTDFSITSDYTWHWVRQFPGNKLEWMAYIHYSGGTNYNPSLRSRISITRDTSKNQFFLHMNSVTTEDTATYYCLYYGSRDAVDYWGQGTSVTVSS
VL: QIVLTQSPAIMSASPGEKVTMTCSTSSSVTYMHWYQQKSGTSPKRWIYDTSKLASGVPARFSGSGSGTSYSLTISSMEAEDAATYYCQQWSSSPYTFGGGTKLEIK
notes: Anti-GALV gp70; One id for the hybridoma supernatant and the recombinant murine IgG2a antibody; also called 40A3-HC / 36H3-LC
B4: 8G8 (antibody, V domains shown)
VH: QVQLQQPGAELVRPGSSVKLSCKASGYTFTNYWMDWVKQRPGQGLEWIGNIYPSDSETHYNQNFKDKATLTVDKSSSTAYMQLSSLTSEDSAVYYCARDYYWGQGTTLTVSS
VL: QAVVTQESALTTSPGETVTLTCRSSTGAVTRSNYANWVQEKPDHLFTGLIGGTNNRALGVPARFSGSLIGDKAALTITGAQTEDEAIYFCALWYSNHLVFGGGTKLTVLQ
notes: Anti-GALV gp70; One id for the hybridoma supernatant and the recombinant murine IgG2a antibody; also called 8G8-HC2 / 8G8-LC2
B5: 4F1 (antibody, V domains shown)
VH: B4 VH with N31S, V37M, N50H, N63K, K67R, T78A, Y80F
VL: B4 VL with R31T, L58P
notes: Anti-GALV gp70; One id for the hybridoma supernatant and the recombinant murine IgG2a antibody; also called 4F1-HC / 4F1-LC1
B6: 9G11 (antibody, V domains shown)
VH: B4 VH with N50H, N61I, N63K, S77N
VL: B4 VL with R31T, L58P, N96S, H97Q
notes: Anti-GALV gp70; One id for the hybridoma supernatant and the recombinant murine IgG2a antibody; also called 9G11-HC / 9G11-LC
B7: 9A1 (antibody, V domains shown)
VH: B4 VH with K19R, N31S, N63K
VL: B4 VL with L58P
notes: Anti-GALV gp70; One id for the hybridoma supernatant and the recombinant murine IgG2a antibody; also called 9A1-HC3 / 9A1-LC1
B8: 2D3 (antibody, V domains shown)
VH: B4 VH with N63K, K65R, S75P
VL: B4 VL with R31T, T82I
notes: Anti-GALV gp70; One id for the hybridoma supernatant and the recombinant murine IgG2a antibody; also called 2D3-HC1 / 2D3-LC1
B9: huIgG1 monoFc tagged GALV gp70 protein (residues 505-616) (Fc fusion)
chain: not shown
notes: Residues are numbered according to Uniprot P21415; also called gp70 (505-616); coiled-coil (CC) domain of GALV gp70
B10: huIgG1 monoFc tagged GALV gp70 protein (residues 42-474) (Fc fusion)
chain: TSLQNKNPHQPMTLTWQVLSQTGDVVWDTKAVQPPWTWWPTLKPDVCALAASLESWDIPGTDVSSSKRVRPPDSDYTAAYKQITWGAIGCSYPRARTRMASSTFYVCPRDGRTLSEARRCGGLESLYCKEWDCETTGTGYWLSKSSKDLITVKWDQNSEWTQKFQQCHQTGWCNPLKIDFTDKGKLSKDWITGKTWGLRFYVSGHPGVQFTIRLKITNMPAVAVGPDLVLVEQGPPRTSLALPPPLPPREAPPPSLPDSNSTALATSAQTPTVRKTIVTLNTPPPTTGDRLFDLVQGAFLTLNATNPGATESCWLCLAMGPPYYEAIASSGEVAYSTDLDRCRWGTQGKLTLTEVSGHGLCIGKVPFTHQHLCNQTLSINSSGDHQYLLPSNHSWWACSTGLTPCLSTSVFNQTRDFCIQVQLIPRIYYYPEE
notes: also called gp70 (42-474)
B11: huIgG1 monoFc tagged GALV gp70 protein (residues 42-616) (Fc fusion)
chain: TSLQNKNPHQPMTLTWQVLSQTGDVVWDTKAVQPPWTWWPTLKPDVCALAASLESWDIPGTDVSSSKRVRPPDSDYTAAYKQITWGAIGCSYPRARTRMASSTFYVCPRDGRTLSEARRCGGLESLYCKEWDCETTGTGYWLSKSSKDLITVKWDQNSEWTQKFQQCHQTGWCNPLKIDFTDKGKLSKDWITGKTWGLRFYVSGHPGVQFTIRLKITNMPAVAVGPDLVLVEQGPPRTSLALPPPLPPREAPPPSLPDSNSTALATSAQTPTVRKTIVTLNTPPPTTGDRLFDLVQGAFLTLNATNPGATESCWLCLAMGPPYYEAIASSGEVAYSTDLDRCRWGTQGKLTLTEVSGHGLCIGKVPFTHQHLCNQTLSINSSGDHQYLLPSNHSWWACSTGLTPCLSTSVFNQTRDFCIQVQLIPRIYYYPEEVLLQAYDNSHPRTKREAVSLTLAVLLGLGITAGIGTGSTALIKGPIDLQQGLTSLQIAIDADLRALQDSVSKLEDSLTSLSEVVLQNRRGLDLLFLKEGGLCAALKEECCFYIDHSGAVRDSMKKLKEKLDKRQLERQKSQN
notes: Residues are numbered according to Uniprot P21415; also called gp70 (42-616); RBD+CC domains

molecular target: B10; assay: BLI Octet Red96; antibody on AMC biosensor, 100 nM monoFc-gp70(42-474) analyte

Row | Binder | Kd | koff | kon
1 | B1 | 0.0175 nM | 6.72e-07 s⁻¹ | 38300 M⁻¹ s⁻¹
2 | B2 | 0.0122 nM | 6.29e-07 s⁻¹ | 51500 M⁻¹ s⁻¹
3 | B3 | 0.00524 nM | 6e-07 s⁻¹ | 114000 M⁻¹ s⁻¹
4 | B4 | 0.193 nM | 6.31e-05 s⁻¹ | 328000 M⁻¹ s⁻¹
5 | B5 | 1.69 nM | 0.000607 s⁻¹ | 359000 M⁻¹ s⁻¹
6 | B6 | 0.704 nM | 0.000257 s⁻¹ | 366000 M⁻¹ s⁻¹
7 | B7 | 1.4 nM | 0.000447 s⁻¹ | 318000 M⁻¹ s⁻¹
8 | B8 | 1.71 nM | 0.00048 s⁻¹ | 281000 M⁻¹ s⁻¹

molecular target: B9; assay: indirect ELISA, hybridoma supernatant on coated monoFc-tagged gp70 (505-616)

Row | Binder | binding result
9 | B3 | no binding
10 | B5 | no binding
11 | B6 | no binding

molecular target: T1, SLC20A1 (PIT1) receptor; assay: flow cytometry, monoFc-tagged gp70 (505-616) on K562 cells (endogenous SLC20A1), PE anti-human Fc secondary

Row | Binder | binding result
12 | B9 | no binding (tested: 10.00 ug/100ul)

molecular target: T1, SLC20A1 (PIT1) receptor; assay: flow cytometry, monoFc-tagged gp70 protein on K562 cells (endogenous SLC20A1), PE anti-human Fc secondary; CHO as negative cells

Row | Binder | binding result
13 | B10 | binds
14 | B11 | binds
